Experimental findings from paper PMC3154933, “The Nucleotide Exchange Factor Ric-8A Is a Chaperone for the Conformationally Dynamic Nucleotide-Free State of Gαi1” (PLoS ONE, 2011) are described below.

The target of this experiment is T1, Ric-8AΔC492 (rat Ric-8A residues 1–492) (rat, UniProt Q80ZG1 1-492).
T1 construct: Ric-8A, rat, residues 1-492; The His tag is used to adsorb it to IMAC resin in the NMR experiment; also called ΔC492Ric-8A; source: E. coli BL21 (DE3)-RIPL, purified (nickel NTA-agarose, UNO-Q); not shown: His6, N-terminal, kept
T1 sequence (looked up): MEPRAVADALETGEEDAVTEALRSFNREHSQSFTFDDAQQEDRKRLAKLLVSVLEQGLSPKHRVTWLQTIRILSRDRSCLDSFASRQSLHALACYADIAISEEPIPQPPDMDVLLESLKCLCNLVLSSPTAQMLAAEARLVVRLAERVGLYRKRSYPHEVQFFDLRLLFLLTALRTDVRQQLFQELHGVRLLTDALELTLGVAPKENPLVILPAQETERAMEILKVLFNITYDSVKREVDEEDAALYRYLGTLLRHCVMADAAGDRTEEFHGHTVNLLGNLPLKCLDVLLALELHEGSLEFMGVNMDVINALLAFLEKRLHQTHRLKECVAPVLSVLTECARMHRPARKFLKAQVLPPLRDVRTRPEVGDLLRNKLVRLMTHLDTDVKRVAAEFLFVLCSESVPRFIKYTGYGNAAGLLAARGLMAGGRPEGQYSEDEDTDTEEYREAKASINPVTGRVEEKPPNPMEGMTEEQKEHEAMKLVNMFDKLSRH
Put plainly: ITC; 250 µM peptide injected into 25 µM Ric-8A in the cell, 25°C, single binding site model. Conditions: both partners purified.

In general, Kd refers to the constant that tells how readily two partners part at equilibrium. The low end stands for a tighter complex, the high end for a looser complex. A word on the stoichiometry N: it is the number of molecules, sites or subunits per partner or assembly.

No end group written: not given here.

B1: Gαi1C18, amidated peptide of the 18 C-terminal residues of rat Gαi1 (peptide)
peptide: DAVTDVIIKNNLKDCGLF-NH2
notes: Gαi1, rat, the C-terminal 18 residues; source: synthetic peptide (FMOC chemistry, HPLC purified)
Take B1: the Kd worked out at 12 µM, the dH was -22.2 kJ/mol and the “stoichiometry N” value was 0.9.
